# In EP1942187B1:
# Experiments:
# Test in all cases: cell-based or functional assay
# human zcytor19 (human) = molecular target: human zcytor19 (human)
# IL10Rb (CRF2-4) (human) = IL10Rb (CRF2-4) (human) (UniProt Q08334)
# [1] = molecular target: zcytoR19 and IL10Rb (CRF2-4) coexpressed on BHK cells (human)
# Chain of IL10Rb (CRF2-4) (human) (Q08334 20-325 limits assumed, form in doubt): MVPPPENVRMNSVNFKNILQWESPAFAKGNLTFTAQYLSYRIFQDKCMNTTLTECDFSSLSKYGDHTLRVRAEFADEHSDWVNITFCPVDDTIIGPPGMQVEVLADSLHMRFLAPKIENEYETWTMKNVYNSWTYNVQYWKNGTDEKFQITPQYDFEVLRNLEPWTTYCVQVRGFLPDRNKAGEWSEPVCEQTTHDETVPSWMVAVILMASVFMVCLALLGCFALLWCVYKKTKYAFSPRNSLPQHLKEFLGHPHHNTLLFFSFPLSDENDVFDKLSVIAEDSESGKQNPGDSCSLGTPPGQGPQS
substance,measurement,setting,value
zcyto10 (from UniProt Q9NYY1 25-176) (ligand),ISRE-luciferase fold induction; 293 cells transfected with ISRE-Luc./Zcytor19; Zcyto10 125ng/ml (fold induction),human zcytor19 (human),1
zcyto22 (ligand),ISRE-luciferase fold induction; wild-type 293 cells; Zcyto22 0.01 ng/ml; + IL10Rb neutralizing antibody (8 ug/ml) (fold induction),IL10Rb (CRF2-4) (human),0.9
same,ISRE-luciferase fold induction; wild-type 293 cells; Zcyto22 0.01 ng/ml; no antibody (fold induction),IL10Rb (CRF2-4) (human),0.9
same,ISRE-luciferase fold induction; wild-type 293 cells; Zcyto22 0.1 ng/ml; + IL10Rb neutralizing antibody (8 ug/ml) (fold induction),IL10Rb (CRF2-4) (human),0.8
same,ISRE-luciferase fold induction; wild-type 293 cells; Zcyto22 0.1 ng/ml; no antibody (fold induction),IL10Rb (CRF2-4) (human),1.2
same,ISRE-luciferase fold induction; wild-type 293 cells; Zcyto22 1 ng/ml; + IL10Rb neutralizing antibody (8 ug/ml) (fold induction),IL10Rb (CRF2-4) (human),0.8
same,ISRE-luciferase fold induction; wild-type 293 cells; Zcyto22 1 ng/ml; no antibody (fold induction),IL10Rb (CRF2-4) (human),1.8
same,ISRE-luciferase fold induction; wild-type 293 cells; Zcyto22 10 ng/ml; + IL10Rb neutralizing antibody (8 ug/ml) (fold induction),IL10Rb (CRF2-4) (human),1
same,ISRE-luciferase fold induction; wild-type 293 cells; Zcyto22 10 ng/ml; no antibody (fold induction),IL10Rb (CRF2-4) (human),8
same,ISRE-luciferase fold induction; wild-type 293 cells; Zcyto22 100 ng/ml; + IL10Rb neutralizing antibody (8 ug/ml) (fold induction),IL10Rb (CRF2-4) (human),1.2
same,ISRE-luciferase fold induction; wild-type 293 cells; Zcyto22 100 ng/ml; no antibody (fold induction),IL10Rb (CRF2-4) (human),11
same,ISRE-luciferase fold induction; zcytoR19-overexpressing 293 cells; Zcyto22 0.01 ng/ml; + IL10Rb neutralizing antibody (8 ug/ml) (fold induction),IL10Rb (CRF2-4) (human),1.3
same,ISRE-luciferase fold induction; zcytoR19-overexpressing 293 cells; Zcyto22 0.01 ng/ml; no antibody (fold induction),IL10Rb (CRF2-4) (human),1
same,ISRE-luciferase fold induction; zcytoR19-overexpressing 293 cells; Zcyto22 0.1 ng/ml; + IL10Rb neutralizing antibody (8 ug/ml) (fold induction),IL10Rb (CRF2-4) (human),1.1
same,ISRE-luciferase fold induction; zcytoR19-overexpressing 293 cells; Zcyto22 0.1 ng/ml; no antibody (fold induction),IL10Rb (CRF2-4) (human),8.4
same,ISRE-luciferase fold induction; zcytoR19-overexpressing 293 cells; Zcyto22 1 ng/ml; + IL10Rb neutralizing antibody (8 ug/ml) (fold induction),IL10Rb (CRF2-4) (human),2.3
same,ISRE-luciferase fold induction; zcytoR19-overexpressing 293 cells; Zcyto22 1 ng/ml; no antibody (fold induction),IL10Rb (CRF2-4) (human),69
same,ISRE-luciferase fold induction; zcytoR19-overexpressing 293 cells; Zcyto22 10 ng/ml; + IL10Rb neutralizing antibody (8 ug/ml) (fold induction),IL10Rb (CRF2-4) (human),39
same,ISRE-luciferase fold induction; zcytoR19-overexpressing 293 cells; Zcyto22 10 ng/ml; no antibody (fold induction),IL10Rb (CRF2-4) (human),97
same,ISRE-luciferase fold induction; zcytoR19-overexpressing 293 cells; Zcyto22 100 ng/ml; + IL10Rb neutralizing antibody (8 ug/ml) (fold induction),IL10Rb (CRF2-4) (human),76
same,ISRE-luciferase fold induction; zcytoR19-overexpressing 293 cells; Zcyto22 100 ng/ml; no antibody (fold induction),IL10Rb (CRF2-4) (human),82
same,ISRE-luciferase fold induction; 293 cells transfected with ISRE-Luc./Zcytor19; Zcyto22 125ng/ml (fold induction),human zcytor19 (human),104
same,ISRE-luciferase fold induction; BHK cells transfected with zcytoR19 alone; zcyto22 0.001 ng/ml (fold induction),human zcytor19 (human),1.2
same,ISRE-luciferase fold induction; BHK cells transfected with zcytoR19 alone; zcyto22 0.01 ng/ml (fold induction),human zcytor19 (human),1.2
same,ISRE-luciferase fold induction; BHK cells transfected with zcytoR19 alone; zcyto22 0.1 ng/ml (fold induction),human zcytor19 (human),1.1
same,ISRE-luciferase fold induction; BHK cells transfected with zcytoR19 alone; zcyto22 1 ng/ml (fold induction),human zcytor19 (human),1.5
same,ISRE-luciferase fold induction; BHK cells transfected with zcytoR19 alone; zcyto22 10 ng/ml (fold induction),human zcytor19 (human),1.9
same,ISRE-luciferase fold induction; BHK cells transfected with zcytoR19 alone; zcyto22 100 ng/ml (fold induction),human zcytor19 (human),2
same,ISRE-luciferase fold induction; BHK cells transfected with zcytoR19 alone; zcyto22 1000 ng/ml (fold induction),human zcytor19 (human),1.8
same,ISRE-luciferase fold induction; BHK cells transfected with zcytoR19 and IL10Rb (CRF2-4); zcyto22 0.001 ng/ml (fold induction),[1],1.3
same,ISRE-luciferase fold induction; BHK cells transfected with zcytoR19 and IL10Rb (CRF2-4); zcyto22 0.01 ng/ml (fold induction),[1],1.7
same,ISRE-luciferase fold induction; BHK cells transfected with zcytoR19 and IL10Rb (CRF2-4); zcyto22 0.1 ng/ml (fold induction),[1],2.4
same,ISRE-luciferase fold induction; BHK cells transfected with zcytoR19 and IL10Rb (CRF2-4); zcyto22 1 ng/ml (fold induction),[1],2.7
same,ISRE-luciferase fold induction; BHK cells transfected with zcytoR19 and IL10Rb (CRF2-4); zcyto22 10 ng/ml (fold induction),[1],2.7
same,ISRE-luciferase fold induction; BHK cells transfected with zcytoR19 and IL10Rb (CRF2-4); zcyto22 100 ng/ml (fold induction),[1],2.2
same,ISRE-luciferase fold induction; BHK cells transfected with zcytoR19 and IL10Rb (CRF2-4); zcyto22 1000 ng/ml (fold induction),[1],2.2
huIL10 (from UniProt P22301 19-178) (ligand),ISRE-luciferase fold induction; 293 cells transfected with ISRE-Luc./Zcytor19; HuIL 10 100ng/ml (fold induction),human zcytor19 (human),0.5
